Results from patent publication CN1934266A (LILLY CO ELI, dated 2007).

Tests used:
Assay in all cases: ELISA, growth factor coated at 10 μg/ml, antibody at 10 μg/ml, mean of duplicates
[1] = target: T1, 重组人GDF-11(Peprotech公司，目录号120-11) (human, UniProt O95390 299-407)
T1 sequence (looked up): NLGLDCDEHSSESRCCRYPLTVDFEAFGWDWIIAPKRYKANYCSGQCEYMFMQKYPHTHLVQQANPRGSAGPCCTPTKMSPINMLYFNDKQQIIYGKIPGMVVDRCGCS

[2] = target: IGF-1 (R&D Systems 291-G1) (UniProt P05019 49-118)
[3] = target: BMP-2 (R&D Systems 355-BEC/CF) (UniProt P12643 283-396)
[4] = target: T2, BMP-5 (R&D Systems 615-BM) (UniProt P22003 317-454, limits assumed)
T2 sequence (looked up): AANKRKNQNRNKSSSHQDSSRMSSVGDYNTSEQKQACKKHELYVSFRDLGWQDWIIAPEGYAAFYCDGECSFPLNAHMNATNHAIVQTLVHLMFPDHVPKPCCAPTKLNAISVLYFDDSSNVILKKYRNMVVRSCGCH

[5] = target: T3, BMP-6 (R&D Systems 507-BP) (UniProt P22004 382-513, limits assumed)
T3 sequence (looked up): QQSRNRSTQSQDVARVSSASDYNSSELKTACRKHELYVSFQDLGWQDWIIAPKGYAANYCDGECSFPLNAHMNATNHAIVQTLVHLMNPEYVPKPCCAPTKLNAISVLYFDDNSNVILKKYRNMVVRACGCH

[6] = target: T4, BMP-7 (R&D Systems 354-BP) (UniProt P18075 293-431)
T4 sequence (looked up): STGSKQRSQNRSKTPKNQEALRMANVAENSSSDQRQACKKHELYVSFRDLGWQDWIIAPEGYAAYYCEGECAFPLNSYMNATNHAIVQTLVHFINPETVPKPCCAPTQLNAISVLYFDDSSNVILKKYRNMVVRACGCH

[7] = target: T5, 激活蛋白A (R&D Systems 338-AC) (UniProt P08476 311-426)
T5 construct: also called activin A
T5 sequence (looked up): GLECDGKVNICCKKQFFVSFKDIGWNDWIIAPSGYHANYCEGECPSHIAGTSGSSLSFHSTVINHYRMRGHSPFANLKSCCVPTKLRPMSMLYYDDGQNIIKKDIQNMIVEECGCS

[8] = target: T6, 激活蛋白B (R&D Systems 659-AB) (UniProt P09529 293-407)
T6 construct: also called activin B
T6 sequence (looked up): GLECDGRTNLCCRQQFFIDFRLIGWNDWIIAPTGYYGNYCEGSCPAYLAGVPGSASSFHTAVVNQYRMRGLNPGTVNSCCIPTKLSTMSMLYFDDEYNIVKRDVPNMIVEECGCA

[9] = target: T7, TGF-a (R&D Systems 239-A) (UniProt P01135 40-89)
T7 construct: also called TGF-α

[10] = target: T8, TGF-b1 (Peprotech 100-21R) (UniProt P01137 279-390)
T8 construct: also called TGF-β1

[11] = target: T9, TGF-b2 (Peprotech 100-35) (UniProt P61812 303-414)
T9 construct: also called TGF-β2
T9 sequence (looked up): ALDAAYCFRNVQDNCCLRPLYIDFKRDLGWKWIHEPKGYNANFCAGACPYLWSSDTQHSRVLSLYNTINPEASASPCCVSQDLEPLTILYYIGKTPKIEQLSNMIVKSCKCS

T7 sequence (P01135 40-89 limits assumed): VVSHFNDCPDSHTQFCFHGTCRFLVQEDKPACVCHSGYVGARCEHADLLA
Chain of IGF-1 (R&D Systems 291-G1) (P05019 49-118 limits assumed): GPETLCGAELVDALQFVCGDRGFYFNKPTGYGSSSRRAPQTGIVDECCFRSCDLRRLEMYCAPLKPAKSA
T8 sequence (P01137 279-390 limits assumed): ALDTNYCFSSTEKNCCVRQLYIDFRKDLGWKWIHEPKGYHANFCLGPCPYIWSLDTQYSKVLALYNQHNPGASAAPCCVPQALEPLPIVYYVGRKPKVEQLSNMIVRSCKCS
Chain of BMP-2 (R&D Systems 355-BEC/CF) (P12643 283-396 limits assumed): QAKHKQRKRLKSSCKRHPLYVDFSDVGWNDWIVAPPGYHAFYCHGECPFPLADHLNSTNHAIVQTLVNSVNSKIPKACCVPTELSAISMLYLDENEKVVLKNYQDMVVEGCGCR

B1: 抗肌肉生长抑素Fab 3 (Fab, V domains shown)
VH: QVTLKESGPGILQSSQTLSLTCSLSGFSLRTSGMSVSWIRQSSGKGLEWLAHIYWDDDKRYNPSLRNRLTISKDTLRNQVFLKITSVGTADTATYYCARRAITTVIGGGTMDYWGQGTSVTVSS
VL: QIVLTQSPAIMSASPGEKVTMTCSASSSISYMHWYQQKPGTSPKRWIYDTSKLASGVPARFSGSGSGTSYSLTISSMEAEDAATYYCQQWYSNPLTFGAGTKLELKR
平均吸光度 (OD 490 nm) [1]: 0.0705 OD 490 nm | 平均吸光度 (OD 490 nm) [2]: 0.034 OD 490 nm | 平均吸光度 (OD 490 nm) [3]: 0.0345 OD 490 nm | 平均吸光度 (OD 490 nm) [4]: 0.034 OD 490 nm | 平均吸光度 (OD 490 nm) [5]: 0.0335 OD 490 nm | 平均吸光度 (OD 490 nm) [6]: 0.033 OD 490 nm | 平均吸光度 (OD 490 nm) [7]: 0.033 OD 490 nm | 平均吸光度 (OD 490 nm) [8]: 0.032 OD 490 nm | 平均吸光度 (OD 490 nm) [9]: 0.033 OD 490 nm | 平均吸光度 (OD 490 nm) [10]: 0.034 OD 490 nm | 平均吸光度 (OD 490 nm) [11]: 0.034 OD 490 nm

B2: 抗肌肉生长抑素Fab 7 (Fab, V domains shown)
VH: QVTLKSGPGILQSSQTLTLTCSLSGFSLTTSGMIVSWIRQSSGRGLEWLAHIYWDDDKRYNPSLRNRLTISKDTLRNQVFLWISSVGTADTATYYCARRAITTVIGGGTMDYWGQGTSVTVSS
VL: QIVLTQSPAIMSASPGEKVTMTCSASSSISYMHWYQQKPGTSPKRWIYDTSKLASGVPARFSGSGSGTSYSLTISSMEAEDAATYYCQQWYSNPLTFGAGTKLELKR
平均吸光度 (OD 490 nm) [1]: 0.04 OD 490 nm | 平均吸光度 (OD 490 nm) [2]: 0.034 OD 490 nm | 平均吸光度 (OD 490 nm) [3]: 0.0335 OD 490 nm | 平均吸光度 (OD 490 nm) [4]: 0.0345 OD 490 nm | 平均吸光度 (OD 490 nm) [5]: 0.035 OD 490 nm | 平均吸光度 (OD 490 nm) [6]: 0.031 OD 490 nm | 平均吸光度 (OD 490 nm) [7]: 0.0325 OD 490 nm | 平均吸光度 (OD 490 nm) [8]: 0.031 OD 490 nm | 平均吸光度 (OD 490 nm) [9]: 0.0315 OD 490 nm | 平均吸光度 (OD 490 nm) [10]: 0.032 OD 490 nm | 平均吸光度 (OD 490 nm) [11]: 0.0345 OD 490 nm

B3: 抗肌肉生长抑素Fab 5 (Fab, V domains shown)
VH: QVTLKESGPGILQSSQTLSLTCSFSGFSLSTSGMSVSWIRQSSGKGLEWLAHIYWDDDKRYNPSLRSRLTISKDTSRNQVFLKITSVDTADTATYYCARRGITTVLGGGTMDYWGQGTSVTVSS
VL: QVVLTQSPAIMSASLGEKVTMTCSASSSVHYMHWYQQKSGTSPKRWIYDTSKLASGVPARFSGSGSGTSYSLTISSMEAEDAATYYCQQWSSNPLTFGAGTKLELKR
平均吸光度 (OD 490 nm) [1]: 0.034 OD 490 nm | 平均吸光度 (OD 490 nm) [2]: 0.035 OD 490 nm | 平均吸光度 (OD 490 nm) [3]: 0.032 OD 490 nm | 平均吸光度 (OD 490 nm) [4]: 0.033 OD 490 nm | 平均吸光度 (OD 490 nm) [5]: 0.0325 OD 490 nm | 平均吸光度 (OD 490 nm) [6]: 0.032 OD 490 nm | 平均吸光度 (OD 490 nm) [7]: 0.033 OD 490 nm | 平均吸光度 (OD 490 nm) [8]: 0.033 OD 490 nm | 平均吸光度 (OD 490 nm) [9]: 0.033 OD 490 nm | 平均吸光度 (OD 490 nm) [10]: 0.0325 OD 490 nm | 平均吸光度 (OD 490 nm) [11]: 0.034 OD 490 nm
